According to the supplement of paper PMC9170038:

System: MS2 coat protein
Experiment: apparent KD of MS2 coat protein; higher = weaker reporter binding
Conditions: Eterna round: R107; input ligand: theophylline 2 mM
Protocol: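 RNA-MaP round R107: designed RNA switches with theophylline, tryptophan, arginine or FMN aptamers are transcribed on-chip within common flanks. They are titrated with SNAP-549-labelled MS2 coat protein in RNA-MaP buffer (100 mM Tris pH 7.5, 80 mM KCl, 4 mM MgCl2), without ligand or with the indicated ligand. Median apparent KD per design.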

Sequence	apparent KD of MS2 coat protein [nM]
UGUAUGGACUGAAGGAGCGGAAGAUAGCUUGAGGAUCACCCAAGUAAUAAGGCGAAAGCCUUCCAGGUAGGUCGCAGUCCAUACU	38
UGCCUAGACGUGGAUUACCCGUGUACCGAAGGAGCGCCCGAAAGGGCAGGUAGGUCGCGGAGGACAUGAGGAUCACCCAUGUUUG	134
UAUCGUCAGACGGCCGCCACUAGUACAUGAGGAUCACCCAUGUAGGUCCUAGAUUCCUCAUGAUCUAGGACCGGGUCUGACGAAU [(Trp1)-(Ms2)-(T)'-(M)'-(Trp2)_Design16]	52.9
UAGAGCCAGUCGGCCGCCACUCUCCAUAUGUGAGCCUUUAAGUUCUACAUGAGGAUCACCCAUGUGAGGACCGGGACCGAAUCUA [theeternabot_exclusion_MS2_Trp_B_18]	93.8
UGUAUGGACUGAAGGAGCGCCUCAAAAUAGCAUGAGGAUCACCCAUGCAAGGCGAAAGCCGGGCAGGUAGGUCGCAGUCCAUACU [ArgBX 3]	14.5
UGUAUGGACUGAAGGAGCGCCUCAAAAUAACAUGAGGAUCACCCAUGUGGCGAAAGCCUUGGGCAGGUAGGUCGCAGUCCAUACU [ArgBX 1 #StaticStem]	72.1
CACAUGAGGAUCACCCAUGUCUGAACUGAAGGAGCGCUAAAUAAGGCAGGUAGGUCGCGGAAUCCCGGGUGCAUAUGCACCCGGG [9.aB]	26.3
AAAAUCCUAUCUGAGGAUCACCCAGGUGAAGGAGCGCCCGAAAGGGCAGGUAGGUCGCACCUGAGGAUCACCCUGGUAAACCUAA [ArgEX 21 #DoubleMS2 #OpenEnded]	90.6
AUUGUGAAGUCGGCCGCCACUGCAUAGUUUAACCACAUGUAACAUGAGGAUCACCCAUGUAAUGACAGGACCGGGACAAUAGUAA [JR_SSTryptoB_Sub023]	29.9
UCGUCAGGCGCGGCCGCCACUGCGGUGAUGUGACAUGAGGAUCACCCAUGUUGUCAUGUGGCACAUAGGACCGGGUGCCUGGCGA [Exclusion - Tryptophan B Attempt #5 (HarryS)]	114
AAGCUUCGCAUAGGAAAACUAUGUGAAGCUCGAGGACCGGUACGGCCGCCACUCGUCCUCAACAUGAGGAUCACCCAUGUAAUAA [Mat - Exclusion - Trytophan A - D2]	25.9
UAGAAACGUACGGCCGCCACUCGGAAUUGGCUCAGACCAUACGUACAUGAGGAUCACCCAUGUUAGAGGACCGGGUAUAAUCUAA [theeternabot_sameState_MS2_Trp_B_46]	31
UUGUGGUAGGCGCAUACUCAUUUAUACAAGCGAGGACCGGUACGGCCGCCACUCGGAAUAAAACAUGAGGAUCACCCAUGUACCG [theeternabot_exclusion_MS2_Trp_A_50]	14.6

Same assay, conditions: Eterna round: R107; input ligand: tryptophan 2.4 mM

Sequence	apparent KD of MS2 coat protein [nM]
ACGUCCAGGUUAAUCGUGGACAUGGUCGAUACCAGUAUUUUAAUCUACCCUUGGCAGCGACAUGAGGAUCACCCAUGUGCGAUGA [XTheo A #15]	13
UAUGCACAUGAGGAUCACCCAUGUAUGGAAGGAGCGGUGAAUGAACCAGGUAGGUCGCCAUGGUGAGGAUCAUCUAUGUAAUCGU [Exclusion - Arginine A (Freestyle 7)]	86.8
CCCAGUUAGAUCAAAGGAAUUAUACUCGAAGGAGCGUCAUAGUAGGCAGGUAGGUCGCGAGACAUGAGGAUCACCCAUGUAGAGA [azqmullin]	37.8
AACAUGAGGACGGAUACCAGUCACAUGAGGAUCACCCAUGUACAUGAGGAUCACCCAUGUGGCCCUUGGCAGCCGCAUGUGAUCA [Exclusion Theophylline B 4]	412
UGGUGUAGGGUAAAUAGGAUUAGUACAGAAGGAGCGCGAAUAAACGCAGGUAGGUCGCUGGAAUAAACAUGAGGAUCACCCAUGU [Same State Arginine A GF 27]	20.7
GGAUAGGACACGGCCGCCACUAGCUAGGAUACUAGCAACAUUUCCUCGCAUGAGGAUCACCCAUGUAGGACCGGGUGUCCUAUCG	484
AAAAUCCUCCAUGAGGAUCACCCAUGGGAAGGAGCGCCCGAAAGGGCAGGUAGGUCGCCCAUGAGGAUCACCCAUGGAACCUAAA [ArgAX 26 #DoubleMS2 #OpenEnded #AlternativeMS2]	43.5
UUUCAGUGGACGGCCGCCACUGAAGUCGAUACAAUCAUGUAGAACAUGAGGAUCACCCAUGUAGUCAGGACCGGGUCCAAUGACU [Tryp B SS t3]	20.5
UGCCGAGACGUGGAUUACCCGUGUACCGAAGGAGCGCCCGAAAGGGCAGGUAGGUCGCGGAGGACAUGAGGAUCACCCAUGUUGA	54.8
UUAGAUUGCCGAAGGAGCGAGAUAGCCUACAUGAGGAUCACCCAUGUAGAAACGGGCUGAUCUCAGGUAGGUCGCGGCAGGUAGC [Soaquatan]	24.9
UGAUUGAACGGAAGGAGCGUGUAAGAACAAGAACAUGAGGAUCACCCAUGUAUUAAUUUAACACAGGUAGGUCGCCGAGAGAUUG [11.D]	12
UCGUGUGUUUCGGAUACCAGUGAAAUCGAUACAUGAGGAUCACCCAUGUGAGAGGAUGUACACCCUUGGCAGCUGUCUGUAUCGG [asczmullin]	43
AUGUAAGUGGUGUCACUGUGGUCUAGUGAUACCAGUAUCGAAAGAUACCCUUGGCAGCGCUAGAACAUGAGGAUCACCCAUGUUU [#24 Exclusion-TheophyllineA]	58.3
GGACUAACCAGAAGGAGCGACACAGCAGAAACUGCAAAUCCUCCGCACGAGGAUCACCCGUGUCAGGUAGGUCGCUGGUUAGUCG [ArgBX 28]	42.7
AGUACAUGAGGAUCACCCAUGUAUCGGUACCGAGGACCGGUACGGCCGCCACUCGCAGGACAUGAGGAUCACCCAUGUGCAGCCG [SSTA DOUBLE!!! :-D #10]	35
UGUAUGGACUGAAGGAGCGGAAGAUAGCUUGAGGAUCACCCAAGUAAUAAGGCGAAAGCCUUCCAGGUAGGUCGCAGUCCAUACU	38.6
UGCCUAGACGUGGAUUACCCGUGUACCGAAGGAGCGCCCGAAAGGGCAGGUAGGUCGCGGAGGACAUGAGGAUCACCCAUGUUUG	88.5
CCGAACAUGAGGAUCACCCAUGUUAGGGAUACCAGCCCAGACAUGGGCCCUUGGCAGCUCUAUAGCUGACGAAAGUCAGCAUCGG [#14 SameState-TheophyllineA]	44.4
UGUAUGGACUGAAGGAGCGCCUCAAAAUAGCAUGAGGAUCACCCAUGCAAGGCGAAAGCCGGGCAGGUAGGUCGCAGUCCAUACU [ArgBX 3]	13
GCUCGUUGCAUGGAUACCAGUUGAUAGGCCGCCUCCGGAUACAUGAGGAUCACCCAUGUCAACCCUUGGCAGCCACCCAAUAGGG [theeternabot_exclusion_MS2_Theo_B_27]	10.6
UGUAUGGACUGAAGGAGCGCCUCAAAAUAACAUGAGGAUCACCCAUGUGGCGAAAGCCUUGGGCAGGUAGGUCGCAGUCCAUACU [ArgBX 1 #StaticStem]	52.9
CACAUGAGGAUCACCCAUGUCUGAACUGAAGGAGCGCUAAAUAAGGCAGGUAGGUCGCGGAAUCCCGGGUGCAUAUGCACCCGGG [9.aB]	20.9
AAAAUCCUAUCUGAGGAUCACCCAGGUGAAGGAGCGCCCGAAAGGGCAGGUAGGUCGCACCUGAGGAUCACCCUGGUAAACCUAA [ArgEX 21 #DoubleMS2 #OpenEnded]	65.4
UGAUCCUAGACUGAUACCAGUCAUGAGUACAUGAGGAUCACCCAUGUCCAGGGACUCAAUGACCCUUGGCAGCAGAACCUAGUUC [Theo B SS t7]	389
UCGUCAGGCGCGGCCGCCACUGCGGUGAUGUGACAUGAGGAUCACCCAUGUUGUCAUGUGGCACAUAGGACCGGGUGCCUGGCGA [Exclusion - Tryptophan B Attempt #5 (HarryS)]	17.6
